Measurements from US20260055182A1.

Columns and labels:
[1] = target: human C1q purified protein (human) (UniProt P02745); assay: SPR (Biacore T200), C1q reversibly immobilised, antibody as analyte
[2] = target: human FcyRI/CD64 (human) (UniProt P12314); assay: SPR (Biacore 8K+), receptor reversibly immobilised, antibody as analyte
[3] = target: human FcyRIIA/CD32a (H167) (human) (UniProt P12318); assay: as above
[4] = target: human FcyRIIIA/CD16a (V176) (human) (UniProt P08637); assay: as above
human FcyRIIIA/CD16a (V176) (human), sequence (P08637 17-208 F176V limits assumed): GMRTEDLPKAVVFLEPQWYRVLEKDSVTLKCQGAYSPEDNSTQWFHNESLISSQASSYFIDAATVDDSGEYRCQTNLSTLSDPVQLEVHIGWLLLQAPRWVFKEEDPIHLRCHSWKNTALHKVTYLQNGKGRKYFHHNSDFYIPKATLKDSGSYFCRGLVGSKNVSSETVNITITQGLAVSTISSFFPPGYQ

[5] = target: human FcRn / FCGRT&B2M (human) (UniProt P55899); assay: SPR (Biacore T200), pH 6.0, FcRn reversibly immobilised, antibody as analyte
human FcRn / FCGRT&B2M (human), sequence (P55899 24-297 limits assumed, chain 1 of 2): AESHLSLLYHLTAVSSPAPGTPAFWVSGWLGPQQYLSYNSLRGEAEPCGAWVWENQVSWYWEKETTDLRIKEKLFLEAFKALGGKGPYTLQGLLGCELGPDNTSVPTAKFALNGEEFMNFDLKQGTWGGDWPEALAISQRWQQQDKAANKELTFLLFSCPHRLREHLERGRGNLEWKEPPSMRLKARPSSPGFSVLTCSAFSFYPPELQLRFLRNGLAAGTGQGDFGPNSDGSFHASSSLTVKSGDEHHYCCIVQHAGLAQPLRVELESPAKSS
human FcRn / FCGRT&B2M (human), sequence (P61769 21-119 limits assumed, chain 2 of 2, further chain): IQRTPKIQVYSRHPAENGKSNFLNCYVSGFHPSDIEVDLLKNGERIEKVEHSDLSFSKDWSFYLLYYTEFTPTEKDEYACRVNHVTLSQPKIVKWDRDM

human FcyRIIA/CD32a (H167) (human), sequence (P12318 36-218): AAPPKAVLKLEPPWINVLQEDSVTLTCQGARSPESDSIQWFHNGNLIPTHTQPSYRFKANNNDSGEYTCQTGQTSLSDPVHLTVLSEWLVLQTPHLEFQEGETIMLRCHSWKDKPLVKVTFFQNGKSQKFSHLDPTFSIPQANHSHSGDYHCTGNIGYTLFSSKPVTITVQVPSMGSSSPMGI
human FcyRI/CD64 (human), sequence (P12314 16-288 limits assumed): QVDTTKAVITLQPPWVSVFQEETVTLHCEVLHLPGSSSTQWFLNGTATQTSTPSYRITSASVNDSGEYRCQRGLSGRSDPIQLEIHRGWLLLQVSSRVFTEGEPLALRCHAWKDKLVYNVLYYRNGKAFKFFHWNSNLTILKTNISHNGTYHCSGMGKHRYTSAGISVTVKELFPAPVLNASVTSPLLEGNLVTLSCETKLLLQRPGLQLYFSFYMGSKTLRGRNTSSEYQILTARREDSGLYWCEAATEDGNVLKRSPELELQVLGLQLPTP
human C1q purified protein (human), sequence (P02745 23-245, chain 1 of 3): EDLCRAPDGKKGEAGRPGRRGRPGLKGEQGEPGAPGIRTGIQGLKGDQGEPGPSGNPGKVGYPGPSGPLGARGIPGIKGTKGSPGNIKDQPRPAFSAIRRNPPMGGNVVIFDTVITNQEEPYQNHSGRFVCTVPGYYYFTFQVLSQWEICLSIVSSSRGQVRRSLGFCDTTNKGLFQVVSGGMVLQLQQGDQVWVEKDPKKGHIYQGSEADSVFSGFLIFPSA
human C1q purified protein (human), sequence (P02746 28-253, chain 2 of 3, further chain): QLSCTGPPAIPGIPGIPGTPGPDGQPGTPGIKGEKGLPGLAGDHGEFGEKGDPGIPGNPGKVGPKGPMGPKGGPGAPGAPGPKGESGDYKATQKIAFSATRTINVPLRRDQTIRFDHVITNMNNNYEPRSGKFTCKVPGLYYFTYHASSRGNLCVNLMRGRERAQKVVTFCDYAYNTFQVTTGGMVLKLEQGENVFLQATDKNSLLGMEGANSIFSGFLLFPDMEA
human C1q purified protein (human), sequence (P02747 29-245, chain 3 of 3, further chain): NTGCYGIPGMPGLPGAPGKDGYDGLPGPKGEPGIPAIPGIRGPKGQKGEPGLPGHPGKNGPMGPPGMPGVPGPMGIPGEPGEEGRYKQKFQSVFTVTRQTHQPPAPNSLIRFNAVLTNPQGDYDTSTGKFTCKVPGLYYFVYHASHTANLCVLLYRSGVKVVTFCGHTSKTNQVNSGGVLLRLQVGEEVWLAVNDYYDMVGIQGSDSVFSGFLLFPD

Work on Mabthera (Rituximab) (antibody) yielded a Kd [1] of 129 nM, a Kd [2] of 0.0407 nM and a Kd [3] of 324 nM. The Kd [4] was 57.9 nM and the Kd [5] was 384 nM.
